The record followed here is IntAct's records for PubMed 29892012.

Sequences and labels used below:
B1: Abl interactor 2 (Homo sapiens), Q9NYB9 (parent)
chain: MAELQMLLEEEIPGGRRALFDSYTNLERVADYCENNYIQSADKQRALEETKAYTTQSLASVAYLINTLANNVLQMLDIQASQLRRMESSINHISQTVDIHKEKVARREIGILTTNKNTSRTHKIIAPANLERPVRYIRKPIDYTILDDIGHGVKWLLRFKVSTQNMKMGGLPRTTPPTQKPPSPPMSGKGTLGRHSPYRTLEPVRPPVVPNDYVPSPTRNMAPSQQSPVRTASVNQRNRTYSSSGSSGGSHPSSRSSSRENSGSGSVGVPIAVPTPSPPSVFPAPAGSAGTPPLPATSASAPAPLVPATVPSSTAPNAAAGGAPNLADGFTSPTPPVVSSTPPTGHPVQFYSMNRPASRHTPPTIGGSLPYRRPPSITSQTSLQNQMNGGPFYSQNPVSDTPPPPPPVEEPVFDESPPPPPPPEDYEEEEAAVVEYSDPYAEEDPPWAPRSYLEKVVAIYDYTKDKEDELSFQEGAIIYVIKKNDDGWYEGVMNGVTGLFPGNYVESIMHYSE
partner: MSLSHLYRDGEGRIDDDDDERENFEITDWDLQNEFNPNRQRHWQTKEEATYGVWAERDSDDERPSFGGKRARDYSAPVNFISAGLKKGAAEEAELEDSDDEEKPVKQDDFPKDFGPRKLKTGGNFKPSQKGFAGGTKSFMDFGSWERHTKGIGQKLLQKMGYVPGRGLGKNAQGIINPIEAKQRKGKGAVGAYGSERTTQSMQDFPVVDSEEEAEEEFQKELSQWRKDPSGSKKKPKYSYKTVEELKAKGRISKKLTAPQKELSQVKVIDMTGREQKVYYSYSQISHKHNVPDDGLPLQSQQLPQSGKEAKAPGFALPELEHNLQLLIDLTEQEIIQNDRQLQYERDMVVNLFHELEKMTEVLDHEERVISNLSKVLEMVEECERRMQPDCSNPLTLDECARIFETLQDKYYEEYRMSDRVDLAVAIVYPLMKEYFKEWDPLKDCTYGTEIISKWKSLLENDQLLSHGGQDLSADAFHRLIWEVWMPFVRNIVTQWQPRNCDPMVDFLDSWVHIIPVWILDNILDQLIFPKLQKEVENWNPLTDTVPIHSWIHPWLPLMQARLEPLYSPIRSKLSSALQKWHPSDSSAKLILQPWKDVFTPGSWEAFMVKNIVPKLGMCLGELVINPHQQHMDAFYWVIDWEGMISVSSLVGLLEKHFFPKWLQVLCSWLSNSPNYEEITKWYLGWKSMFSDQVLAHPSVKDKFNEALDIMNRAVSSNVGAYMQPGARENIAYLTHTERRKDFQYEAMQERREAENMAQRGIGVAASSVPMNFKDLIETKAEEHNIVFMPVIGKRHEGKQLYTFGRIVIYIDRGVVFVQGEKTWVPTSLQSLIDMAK
B2: U3 small nucleolar RNA-associated protein 25 homolog (Homo sapiens), Q68CQ4 (parent)
chain: MGKRGSRSQSQLLNTLTKKQKKHLRDFGEEHPFYDRVSRKEAKPQICQLSESSDSSDSESDSESEPQQVSGYHRLLATLKNVSEEEEEDEEEEEEEDSIVDDAEMNDEDGGSDVSVEEEMAAESTESPENVALSADPEGKEDGEEPPGTSQTSPEEFTDAKHESLFSLETNFLEEESGDNSSLKASQDPFLQHVNKELKEKAIQAVATNPKTTHELKWPILGQLFFSSKFQKLETFKPPKDIDLKSLHLQKPLESTWTKTNSQFLSGPQKSSSPFTPLQKELFLIMNSYRDLFYPERTALKNGEEIRHVYCLHVINHILKANAQVLGNNSRRRSQKFGVGDDDDFRDQGLTRPKVLIVVPFREAALRVVQLFISLLEGDSKKKIIVSNKKRFQGEYGSDPEERPPNLKRPEDYEAVFVGNIDDHFRIGVAILQRSIRLYAPFYSSDILIASPLGLRTIIGGEGEKKRDFDFLSSIELLIIDQADIYLMQNWEHVLHLMNHMNLLPLDSHGVDFSRVRMWSLNNWSKYYRQTLLFGALQDAQINSVFNKYCVNMQGQVAVRNVPMTGSISHVLVQLPHVFQRMEAENLASVIDARFNFFVNKILPQYRDAVMSHTLIYIPSYFDFVRLRNYFKKEELNFTHICEYTQKSGVSRARHFFLQGEKQFLLFTERFHFYKRYTIKGIRNLIFYELPTYPHFYSEICNMLRATNRGEEATWTCTVLYSKYDAQRLAAVVGVERAAQMLQSNKNVHLFITGEK
partner: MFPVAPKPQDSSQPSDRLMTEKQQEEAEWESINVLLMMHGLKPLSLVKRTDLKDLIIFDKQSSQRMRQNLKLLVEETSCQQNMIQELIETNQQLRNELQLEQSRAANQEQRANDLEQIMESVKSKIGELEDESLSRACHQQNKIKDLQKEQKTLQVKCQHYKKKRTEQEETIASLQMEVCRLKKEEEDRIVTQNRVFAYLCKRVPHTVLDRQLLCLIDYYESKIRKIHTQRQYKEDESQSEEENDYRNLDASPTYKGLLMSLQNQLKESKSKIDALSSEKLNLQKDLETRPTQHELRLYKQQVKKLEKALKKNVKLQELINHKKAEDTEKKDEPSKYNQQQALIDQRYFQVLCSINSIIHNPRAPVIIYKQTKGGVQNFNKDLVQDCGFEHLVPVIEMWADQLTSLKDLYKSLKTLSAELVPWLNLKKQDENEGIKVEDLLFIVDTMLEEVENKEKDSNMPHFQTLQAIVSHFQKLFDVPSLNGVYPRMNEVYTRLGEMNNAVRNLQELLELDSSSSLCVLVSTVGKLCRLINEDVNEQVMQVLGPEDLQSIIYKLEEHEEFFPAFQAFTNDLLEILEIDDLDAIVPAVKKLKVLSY
B3: E3 ubiquitin-protein ligase LNX (Homo sapiens), Q8TBB1 (parent)
chain: MNQPESANDPEPLCAVCGQAHSLEENHFYSYPEEVDDDLICHICLQALLDPLDTPCGHTYCTLCLTNFLVEKDFCPMDRKPLVLQHCKKSSILVNKLLNKLLVTCPFREHCTQVLQRCDLEHHFQTSCKGASHYGLTKDRKRRSQDGCPDGCASLTATAPSPEVSAAATISLMTDEPGLDNPAYVSSAEDGQPAISPVDSGRSNRTRARPFERSTIRSRSFKKINRALSVLRRTKSGSAVANHADQGRENSENTTAPEVFPRLYHLIPDGEITSIKINRVDPSESLSIRLVGGSETPLVHIIIQHIYRDGVIARDGRLLPGDIILKVNGMDISNVPHNYAVRLLRQPCQVLWLTVMREQKFRSRNNGQAPDAYRPRDDSFHVILNKSSPEEQLGIKLVRKVDEPGVFIFNVLDGGVAYRHGQLEENDRVLAINGHDLRYGSPESAAHLIQASERRVHLVVSRQVRQRSPDIFQEAGWNSNGSWSPGPGERSNTPKPLHPTITCHEKVVNIQKDPGESLGMTVAGGASHREWDLPIYVISVEPGGVISRDGRIKTGDILLNVDGVELTEVSRSEAVALLKRTSSSIVLKALEVKEYEPQEDCSSPAALDSNHNMAPPSDWSPSWVMWLELPRCLYNCKDIVLRRNTAGSLGFCIVGGYEEYNGNKPFFIKSIVEGTPAYNDGRIRCGDILLAVNGRSTSGMIHACLARLLKELKGRITLTIVSWPGTFL
partner: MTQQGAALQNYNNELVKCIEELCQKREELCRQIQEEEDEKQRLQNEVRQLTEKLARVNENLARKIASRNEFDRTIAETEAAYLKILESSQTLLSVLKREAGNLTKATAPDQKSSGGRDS
B4: E3 ubiquitin-protein ligase LNX (Homo sapiens), Q8TBB1 (parent)
chain: B3 chain
partner: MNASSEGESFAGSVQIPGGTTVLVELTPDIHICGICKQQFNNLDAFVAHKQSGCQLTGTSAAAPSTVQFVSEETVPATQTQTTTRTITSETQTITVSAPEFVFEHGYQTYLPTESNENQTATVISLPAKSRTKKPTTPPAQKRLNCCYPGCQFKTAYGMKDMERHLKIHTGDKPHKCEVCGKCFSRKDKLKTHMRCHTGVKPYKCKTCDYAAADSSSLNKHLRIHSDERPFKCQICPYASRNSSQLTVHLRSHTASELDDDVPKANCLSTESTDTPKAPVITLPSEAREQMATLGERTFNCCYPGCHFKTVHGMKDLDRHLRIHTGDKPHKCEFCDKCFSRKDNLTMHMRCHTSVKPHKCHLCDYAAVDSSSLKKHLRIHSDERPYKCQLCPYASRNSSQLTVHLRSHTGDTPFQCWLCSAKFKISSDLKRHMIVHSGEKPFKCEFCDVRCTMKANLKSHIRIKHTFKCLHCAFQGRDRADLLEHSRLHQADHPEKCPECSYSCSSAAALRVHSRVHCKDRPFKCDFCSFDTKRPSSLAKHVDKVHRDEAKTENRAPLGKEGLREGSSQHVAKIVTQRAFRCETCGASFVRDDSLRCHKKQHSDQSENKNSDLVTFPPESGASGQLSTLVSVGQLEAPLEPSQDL
B5: Rho guanine nucleotide exchange factor 3 (Homo sapiens), Q9NR81 (parent)
chain: MVAKDYPFYLTVKRANCSLELPPASGPAKDAEEPSNKRVKPLSRVTSLANLIPPVKATPLKRFSQTLQRSISFRSESRPDILAPRPWSRNAAPSSTKRRDSKLWSETFDVCVNQMLTSKEIKRQEAIFELSQGEEDLIEDLKLAKKAYHDPMLKLSIMTEQELNQIFGTLDSLIPLHEELLSQLRDVRKPDGSTEHVGPILVGWLPCLSSYDSYCSNQVAAKALLDHKKQDHRVQDFLQRCLESPFSRKLDLWNFLDIPRSRLVKYPLLLREILRHTPNDNPDQQHLEEAINIIQGIVAEINTKTGESECRYYKERLLYLEEGQKDSLIDSSRVLCCHGELKNNRGVKLHVFLFQEVLVITRAVTHNEQLCYQLYRQPIPVKDLLLEDLQDGEVRLGGSLRGAFSNNERIKNFFRVSFKNGSQSQTHSLQANDTFNKQQWLNCIRQAKETVLCAAGQAGVLDSEGSFLNPTTGSRELQGETKLEQMDQSDSESDCSMDTSEVSLDCERMEQTDSSCGNSRHGESNV
partner: B2 partner
B6: Abl interactor 2 (Homo sapiens), Q9NYB9 (parent)
chain: B1 chain

One test covers variants of B1. Conditions: with tfp11_human TFIP11, Q9UBB9.
In the case of R373C, the “effect of a mutation on the interaction” value was “with no effect”.

Variants of B1 are the subject of another test. Conditions: with tfp11_human TFIP11, Q9UBB9. This is another data set of the same source.
In the case of E202K, the “effect of a mutation on the interaction” value is “with no effect”.

In the next test the parent is B2. Conditions: with cep70_human CEP70, Q8NHQ1.
In the case of D399E, the “effect of a mutation on the interaction” value is “with no effect”.

Variants of B3 are the subject of the next test. Conditions: with ssna1_human SSNA1, O43805.
Regarding E295K, the “effect of a mutation on the interaction” value was “disrupting interaction strength”.

A further test covers variants of B4. To be noted: with zf64b_human ZFP64, Q9NTW7.
Consider E295K, for which the “effect of a mutation on the interaction” value is reported as “disrupting interaction strength”.

The next test covers variants of B5. Conditions: with cep70_human CEP70, Q8NHQ1.
P34S: the “effect of a mutation on the interaction” value is listed as “with no effect”.

In another test the parent is B6. To be noted: with ift20_human IFT20, Q8IY31.
Chain of ift20_human IFT20, Q8IY31 (Q8IY31 whole entry): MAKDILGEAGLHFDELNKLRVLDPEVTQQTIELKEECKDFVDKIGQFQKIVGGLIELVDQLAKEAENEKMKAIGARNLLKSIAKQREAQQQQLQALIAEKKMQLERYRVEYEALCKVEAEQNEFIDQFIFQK
For the variant R373C, the “effect of a mutation on the interaction” value is “with no effect”.

Variants of B6 are the subject of the next test. Conditions: with k1h1_human KRT31, Q15323.
Chain of k1h1_human KRT31, Q15323 (Q15323 whole entry): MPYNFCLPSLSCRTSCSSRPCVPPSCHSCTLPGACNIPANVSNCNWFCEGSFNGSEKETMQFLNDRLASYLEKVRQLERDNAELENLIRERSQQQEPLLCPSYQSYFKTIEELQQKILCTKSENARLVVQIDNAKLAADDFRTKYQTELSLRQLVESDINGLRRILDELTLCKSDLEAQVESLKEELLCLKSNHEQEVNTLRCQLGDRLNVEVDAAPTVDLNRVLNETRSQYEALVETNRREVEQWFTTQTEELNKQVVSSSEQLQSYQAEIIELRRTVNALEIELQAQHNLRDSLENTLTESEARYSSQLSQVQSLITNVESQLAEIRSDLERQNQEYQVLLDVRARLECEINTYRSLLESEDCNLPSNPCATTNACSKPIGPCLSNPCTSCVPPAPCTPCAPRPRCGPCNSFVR
On to R373C, for which the “effect of a mutation on the interaction” value was “with no effect”.

A further test covers variants of B6. Conditions: with aapk2_human PRKAA2, P54646.
Chain of aapk2_human PRKAA2, P54646 (P54646 whole entry, looked up): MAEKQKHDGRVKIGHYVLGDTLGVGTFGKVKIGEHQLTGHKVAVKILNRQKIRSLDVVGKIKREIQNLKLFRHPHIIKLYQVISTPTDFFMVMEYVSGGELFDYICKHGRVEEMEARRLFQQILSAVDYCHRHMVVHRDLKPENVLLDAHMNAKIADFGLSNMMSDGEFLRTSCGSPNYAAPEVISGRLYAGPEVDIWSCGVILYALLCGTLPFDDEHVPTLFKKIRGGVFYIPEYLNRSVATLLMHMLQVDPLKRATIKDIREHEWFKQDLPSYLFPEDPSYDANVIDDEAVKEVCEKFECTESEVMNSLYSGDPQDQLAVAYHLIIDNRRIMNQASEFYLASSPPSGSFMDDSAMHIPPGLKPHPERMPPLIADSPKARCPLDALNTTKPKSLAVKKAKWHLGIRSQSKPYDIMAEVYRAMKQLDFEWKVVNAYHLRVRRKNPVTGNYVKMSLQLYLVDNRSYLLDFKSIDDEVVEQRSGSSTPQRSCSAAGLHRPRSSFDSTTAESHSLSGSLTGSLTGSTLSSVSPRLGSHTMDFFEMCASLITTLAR
R373C: the “effect of a mutation on the interaction” value is “with no effect”.

The variants in the next test derive from B6. Conditions: with stam2_human STAM2, O75886.
Take R373C: the “effect of a mutation on the interaction” value is “with no effect”.

The variants in the next test derive from B6. Conditions: with aapk1_human PRKAA1, Q13131.
Chain of aapk1_human PRKAA1, Q13131 (Q13131 whole entry, looked up): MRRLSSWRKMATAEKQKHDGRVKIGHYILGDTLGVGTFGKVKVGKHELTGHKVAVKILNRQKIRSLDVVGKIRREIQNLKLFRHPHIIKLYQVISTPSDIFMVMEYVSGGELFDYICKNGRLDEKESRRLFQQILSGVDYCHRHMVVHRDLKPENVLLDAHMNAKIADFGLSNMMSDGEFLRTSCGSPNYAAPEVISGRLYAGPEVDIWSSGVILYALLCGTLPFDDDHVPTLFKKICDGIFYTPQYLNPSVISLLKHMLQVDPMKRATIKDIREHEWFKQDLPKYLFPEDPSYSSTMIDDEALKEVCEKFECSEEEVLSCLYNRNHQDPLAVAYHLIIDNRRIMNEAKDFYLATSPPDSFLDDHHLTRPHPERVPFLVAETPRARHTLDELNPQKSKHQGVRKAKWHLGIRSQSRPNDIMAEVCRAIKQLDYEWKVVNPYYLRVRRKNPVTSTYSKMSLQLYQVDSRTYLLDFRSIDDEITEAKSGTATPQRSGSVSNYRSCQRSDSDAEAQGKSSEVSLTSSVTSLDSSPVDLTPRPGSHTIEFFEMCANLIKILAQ
Consider R373C, for which the “effect of a mutation on the interaction” value was “with no effect”.

A further test covers variants of B6. Conditions: with hnrpk_human HNRNPK.
R373C: the “effect of a mutation on the interaction” value is given as “with no effect”.

In the next test the parent is B6. Conditions: with vasp_human VASP.
On to R373C, for which the “effect of a mutation on the interaction” value is “with no effect”.

The variants in a further test derive from B6. Conditions: with KRT15, P19012.
Chain of KRT15, P19012 (P19012 whole entry): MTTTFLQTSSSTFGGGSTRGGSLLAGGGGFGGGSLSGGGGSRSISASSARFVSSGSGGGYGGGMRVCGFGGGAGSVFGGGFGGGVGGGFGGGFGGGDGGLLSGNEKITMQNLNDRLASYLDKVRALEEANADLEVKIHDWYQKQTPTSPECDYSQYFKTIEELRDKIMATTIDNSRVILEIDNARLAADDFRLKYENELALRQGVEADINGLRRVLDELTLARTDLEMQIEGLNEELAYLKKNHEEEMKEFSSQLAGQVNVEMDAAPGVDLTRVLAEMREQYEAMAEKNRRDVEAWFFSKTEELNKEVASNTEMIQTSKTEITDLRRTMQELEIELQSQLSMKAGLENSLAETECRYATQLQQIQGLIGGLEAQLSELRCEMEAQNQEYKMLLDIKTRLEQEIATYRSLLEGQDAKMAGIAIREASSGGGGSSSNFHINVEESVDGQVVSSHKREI
Turning to R373C, the “effect of a mutation on the interaction” value is reported as “with no effect”.

Variants of B6 are the subject of another test. To be noted: with nup62_human NUP62, P37198.
Chain of nup62_human NUP62, P37198 (P37198 whole entry): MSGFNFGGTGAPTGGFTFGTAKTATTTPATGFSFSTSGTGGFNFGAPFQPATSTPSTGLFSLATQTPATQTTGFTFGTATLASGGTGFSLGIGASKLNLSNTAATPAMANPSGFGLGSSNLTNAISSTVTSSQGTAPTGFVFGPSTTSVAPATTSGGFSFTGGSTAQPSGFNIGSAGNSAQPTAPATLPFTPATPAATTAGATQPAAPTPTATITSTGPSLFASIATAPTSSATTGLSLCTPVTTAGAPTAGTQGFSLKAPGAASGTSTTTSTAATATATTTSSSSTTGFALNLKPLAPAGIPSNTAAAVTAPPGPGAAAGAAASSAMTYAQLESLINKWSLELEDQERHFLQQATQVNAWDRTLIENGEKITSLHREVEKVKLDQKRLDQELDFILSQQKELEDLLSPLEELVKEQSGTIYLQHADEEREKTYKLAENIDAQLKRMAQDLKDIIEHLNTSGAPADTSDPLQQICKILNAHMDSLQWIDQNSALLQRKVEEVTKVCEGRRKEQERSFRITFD
Take R373C: the “effect of a mutation on the interaction” value is given as “with no effect”.

The variants in another test derive from B6. To be noted: with KRT19, P08727.
Chain of KRT19, P08727 (P08727 whole entry): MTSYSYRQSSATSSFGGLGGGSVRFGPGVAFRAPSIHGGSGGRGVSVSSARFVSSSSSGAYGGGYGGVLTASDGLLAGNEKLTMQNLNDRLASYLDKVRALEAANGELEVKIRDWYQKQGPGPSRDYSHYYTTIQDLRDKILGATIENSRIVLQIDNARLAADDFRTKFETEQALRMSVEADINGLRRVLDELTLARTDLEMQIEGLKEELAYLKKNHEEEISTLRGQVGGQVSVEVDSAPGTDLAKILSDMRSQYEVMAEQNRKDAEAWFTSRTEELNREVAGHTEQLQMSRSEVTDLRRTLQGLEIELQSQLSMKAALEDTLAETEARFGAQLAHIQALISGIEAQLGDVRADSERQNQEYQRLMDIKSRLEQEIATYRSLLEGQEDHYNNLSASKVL
For the variant R373C, the “effect of a mutation on the interaction” value is “with no effect”.

Variants of B6 are the subject of a further test. To be noted: with nck2_human NCK2, O43639.
Chain of nck2_human NCK2, O43639 (O43639 whole entry): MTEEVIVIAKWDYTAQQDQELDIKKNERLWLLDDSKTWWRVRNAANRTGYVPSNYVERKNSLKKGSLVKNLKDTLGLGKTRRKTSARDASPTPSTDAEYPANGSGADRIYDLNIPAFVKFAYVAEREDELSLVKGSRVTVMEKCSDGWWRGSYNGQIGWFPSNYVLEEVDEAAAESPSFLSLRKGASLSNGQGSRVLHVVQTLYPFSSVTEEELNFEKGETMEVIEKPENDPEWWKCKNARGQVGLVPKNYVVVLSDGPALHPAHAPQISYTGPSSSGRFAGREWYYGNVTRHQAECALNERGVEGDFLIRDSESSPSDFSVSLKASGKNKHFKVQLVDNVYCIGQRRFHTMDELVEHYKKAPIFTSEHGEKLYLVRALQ
For the variant R373C, the “effect of a mutation on the interaction” value is on record as “with no effect”.

In another test the parent is B6. Conditions: with hgs_human HGS.
As for R373C, the “effect of a mutation on the interaction” value was “with no effect”.

A further test covers variants of B6. To be noted: with sdcb1_human SDCBP.
Consider R373C, for which the “effect of a mutation on the interaction” value was “with no effect”.

In a further test the parent is B6. To be noted: with tri32_human TRIM32, Q13049.
Chain of tri32_human TRIM32, Q13049 (Q13049 whole entry): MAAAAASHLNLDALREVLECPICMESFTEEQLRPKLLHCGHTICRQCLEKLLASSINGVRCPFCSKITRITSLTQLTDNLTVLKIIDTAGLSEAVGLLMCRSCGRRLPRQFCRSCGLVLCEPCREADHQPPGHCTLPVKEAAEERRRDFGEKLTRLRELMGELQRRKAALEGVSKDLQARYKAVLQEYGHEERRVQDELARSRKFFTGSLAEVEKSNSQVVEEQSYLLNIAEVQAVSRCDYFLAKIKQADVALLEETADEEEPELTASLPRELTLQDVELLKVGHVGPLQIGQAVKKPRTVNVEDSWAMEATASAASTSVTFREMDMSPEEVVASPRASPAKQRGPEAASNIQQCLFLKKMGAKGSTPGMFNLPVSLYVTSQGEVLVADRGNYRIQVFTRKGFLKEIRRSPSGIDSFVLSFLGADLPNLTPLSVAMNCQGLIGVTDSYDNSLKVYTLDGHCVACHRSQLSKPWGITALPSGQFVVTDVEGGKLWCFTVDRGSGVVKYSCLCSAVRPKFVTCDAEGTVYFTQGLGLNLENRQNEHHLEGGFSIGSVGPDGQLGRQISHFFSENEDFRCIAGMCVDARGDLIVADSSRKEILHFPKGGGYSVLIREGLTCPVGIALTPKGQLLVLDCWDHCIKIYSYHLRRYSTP
Consider R373C, for which the “effect of a mutation on the interaction” value was “with no effect”.

Variants of B6 are the subject of another test. Conditions: with pcm1_human PCM1, Q15154.
For the variant R373C, the “effect of a mutation on the interaction” value was “with no effect”.

In the next test the parent is B6. Conditions: with vinc_human VCL.
As for R373C, the “effect of a mutation on the interaction” value was “with no effect”.

The next test covers variants of B6. Conditions: with crx_human CRX.
As to R373C, the “effect of a mutation on the interaction” value is listed as “with no effect”.

In a further test the parent is B6. Conditions: with mr1l1_human MRFAP1L1, Q96HT8.
Chain of mr1l1_human MRFAP1L1, Q96HT8 (Q96HT8 whole entry): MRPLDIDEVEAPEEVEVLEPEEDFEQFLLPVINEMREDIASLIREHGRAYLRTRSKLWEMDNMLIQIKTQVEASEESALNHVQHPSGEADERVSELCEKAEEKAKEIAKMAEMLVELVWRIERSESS
In the case of R373C, the “effect of a mutation on the interaction” value is given as “with no effect”.

In another test the parent is B6. Conditions: with efs_human EFS.
R373C: the “effect of a mutation on the interaction” value was “with no effect”.
